Assay results published in patent US20200207850A1 (MacroGenics, published 2020).
Residue numbers refer to the chain shown, from its start.

B1: B7-H3 mAb 1/CD3 mAb 2/CD8 mAb 2 Tri-Specific Binding Molecule (other)
chain 1: DIQMTQSPSSLSASVGDRVTITCRASQDISNYLNWYQQKPGKAPKLLIYYTSRLHSGVPSRFSGSGSGTDFTLTISSLQPEDIATYYCQQGNTLPPTFGGGTKLEIKGGGSGGGGEVQLVESGGGLVQPGGSLRLSCAASGFTFSTYAMNWVRQAPGKGLEWVGRIRSKYNNYATYYADSVKDRFTISRDDSKNSLYLQMNSLKTEDTAVYYCVRHGNFGNSYVSWFAYWGQGTLVTVSSGGCGGGEVAALEKEVAALEKEVAALEKEVAALEKGGGDKTHTCPPCPAPEAAGGPSVFLFPPKPKDTLMISRTPEVTCVVVDVSHEDPEVKFNWYVDGVEVHNAKTKPREEQYNSTYRVVSVLTVLHQDWLNGKEYKCKVSNKALPAPIEKTISKAKGQPREPQVYTLPPSREEMTKNQVSLWCLVKGFYPSDIAVEWESNGQPENNYKTTPPVLDSDGSFFLYSKLTVDKSRWQQGNVFSCSVMHEALHNHYTQKSLSLSPGK
chain 2: QAVVTQEPSLTVSPGGTVTLTCRSSTGAVTTSNYANWVQQKPGQAPRGLIGGTNKRAPWTPARFSGSLLGGKAALTITGAQAEDEADYYCALWYSNLWVFGGGTKLTVLGGGGSGGGGQVQLVQSGAEVKKPGASVKVSCKASGYTFTSYWMQWVRQAPGQGLEWMGTIYPGDGDTRYTQKFKGRVTITADKSTSTAYMELSSLRSEDTAVYYCARRGIPRLWYFDVWGQGTTVTVSSGGCGGGKVAALKEKVAALKEKVAALKEKVAALKE
heavy: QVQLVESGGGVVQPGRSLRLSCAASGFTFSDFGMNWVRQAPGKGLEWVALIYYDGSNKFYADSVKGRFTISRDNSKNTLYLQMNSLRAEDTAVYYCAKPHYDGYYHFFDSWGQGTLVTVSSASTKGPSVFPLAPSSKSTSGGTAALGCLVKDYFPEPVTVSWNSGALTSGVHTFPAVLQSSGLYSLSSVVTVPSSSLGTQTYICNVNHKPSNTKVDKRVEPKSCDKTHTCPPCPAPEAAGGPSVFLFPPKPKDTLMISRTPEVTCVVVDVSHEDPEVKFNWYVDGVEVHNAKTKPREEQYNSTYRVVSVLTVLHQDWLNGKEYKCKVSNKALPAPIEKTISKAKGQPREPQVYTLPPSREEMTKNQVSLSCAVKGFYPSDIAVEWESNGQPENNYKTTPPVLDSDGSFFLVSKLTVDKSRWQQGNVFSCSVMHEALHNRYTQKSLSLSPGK
light: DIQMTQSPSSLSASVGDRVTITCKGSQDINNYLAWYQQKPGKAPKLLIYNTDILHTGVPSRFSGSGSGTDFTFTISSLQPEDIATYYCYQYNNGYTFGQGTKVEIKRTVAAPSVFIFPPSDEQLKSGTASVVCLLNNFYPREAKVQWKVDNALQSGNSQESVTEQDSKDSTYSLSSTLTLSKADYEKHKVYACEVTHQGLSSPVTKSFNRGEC
notes: Site A B7-H3, Site B CD3, Site C CD8 (TRX2)
B2: 5T4 mAb 1/CD3 mAb 2/CD8 mAb 1 Tri-Specific Binding Molecule (other)
chain 1: DIQMTQSPSSLSASVGDRVTITCRASQGISNYLAWFQQKPGKAPKSLIYRANRLQSGVPSRFSGSGSGTDFTLTISSLQPEDVATYYCLQYDDFPWTFGQGTKLEIKGGGSGGGGEVQLVESGGGLVQPGGSLRLSCAASGFTFSTYAMNWVRQAPGKGLEWVGRIRSKYNNYATYYADSVKGRFTISRDDSKNSLYLQMNSLKTEDTAVYYCVRHGNFGNSYVSWFAYWGQGTLVTVSSGGCGGGEVAALEKEVAALEKEVAALEKEVAALEKGGGDKTHTCPPCPAPEAAGGPSVFLFPPKPKDTLMISRTPEVTCVVVDVSHEDPEVKFNWYVDGVEVHNAKTKPREEQYNSTYRVVSVLTVLHQDWLNGKEYKCKVSNKALPAPIEKTISKAKGQPREPQVYTLPPSREEMTKNQVSLWCLVKGFYPSDIAVEWESNGQPENNYKTTPPVLDSDGSFFLYSKLTVDKSRWQQGNVFSCSVMHEALHNHYTQKSLSLSPGK
chain 2: QAVVTQEPSLTVSPGGTVTLTCRSSTGAVTTSNYANWVQQKPGQAPRGLIGGTNKRAPWTPARFSGSLLGGKAALTITGAQAEDEADYYCALWYSNLWVFGGGTKLTVLGGGGSGGGGQVQLVQSGAEVKKPGASVKVSCKASGYTFTSFWMHWVRQAPGQGLEWMGRIDPNRGGTEYNEKAKSRVTMTADKSTSTAYMELSSLRSEDTAVYYCAGGNPYYPMDYWGQGTTVTVSSGGCGGGKVAALKEKVAALKEKVAALKEKVAALKE
heavy: EVQLQQSGAELVKPGASVKLSCTASGFNIKDTYIHFVRQRPEQGLEWIGRIDPANDNTLYASKFQGKATITADTSSNTAYMHLCSLTSGDTAVYYCGRGYGYYVFDHWGQGTTLTVSSASTKGPSVFPLAPSSKSTSGGTAALGCLVKDYFPEPVTVSWNSGALTSGVHTFPAVLQSSGLYSLSSVVTVPSSSLGTQTYICNVNHKPSNTKVDKRVEPKSCDKTHTCPPCPAPEAAGGPSVFLFPPKPKDTLMISRTPEVTCVVVDVSHEDPEVKFNWYVDGVEVHNAKTKPREEQYNSTYRVVSVLTVLHQDWLNGKEYKCKVSNKALPAPIEKTISKAKGQPREPQVYTLPPSREEMTKNQVSLSCAVKGFYPSDIAVEWESNGQPENNYKTTPPVLDSDGSFFLVSKLTVDKSRWQQGNVFSCSVMHEALHNRYTQKSLSLSPGK
light: DVQINQSPSFLAASPGETITINCRTSRSISQYLAWYQEKPGKTNKLLIYSGSTLQSGIPSRFSGSGSGTDFTLTISGLEPEDFAMYYCQQHNENPLTFGAGTKLELRRTVAAPSVFIFPPSDEQLKSGTASVVCLLNNFYPREAKVQWKVDNALQSGNSQESVTEQDSKDSTYSLSSTLTLSKADYEKHKVYACEVTHQGLSSPVTKSFNRGEC
B3: 5T4 mAb 1/CD3 mAb 2 Low/CD8 mAb 1 Tri-Specific Binding Molecule (other)
chain 1: DIQMTQSPSSLSASVGDRVTITCRASQGISNYLAWFQQKPGKAPKSLIYRANRLQSGVPSRFSGSGSGTDFTLTISSLQPEDVATYYCLQYDDFPWTFGQGTKLEIKGGGSGGGGEVQLVESGGGLVQPGGSLRLSCAASGFTFSTYAMNWVRQAPGKGLEWVGRIRSKYNNYATYYADSVKGRFTISRDDSKNSLYLQMNSLKTEDTAVYYCVRHGNFGNSYVTWFAYWGQGTLVTVSSASTKGEVAACEKEVAALEKEVAALEKEVAALEKGGGDKTHTCPPCPAPEAAGGPSVFLFPPKPKDTLMISRTPEVTCVVVDVSHEDPEVKFNWYVDGVEVHNAKTKPREEQYNSTYRVVSVLTVLHQDWLNGKEYKCKVSNKALPAPIEKTISKAKGQPREPQVYTLPPSREEMTKNQVSLWCLVKGFYPSDIAVEWESNGQPENNYKTTPPVLDSDGSFFLYSKLTVDKSRWQQGNVFSCSVMHEALHNHYTQKSLSLSPGK
chain 2: QAVVTQEPSLTVSPGGTVTLTCRSSTGAVTTSNYANWVQQKPGQAPRGLIGGTNKRAPWTPARFSGSLLGGKAALTITGAQAEDEADYYCALWYSNLWVFGGGTKLTVLGGGGSGGGGQVQLVQSGAEVKKPGASVKVSCKASGYTFTSFWMHWVRQAPGQGLEWMGRIDPNRGGTEYNEKAKSRVTMTADKSTSTAYMELSSLRSEDTAVYYCAGGNPYYPMDYWGQGTTVTVSSASTKGKVAACKEKVAALKEKVAALKEKVAALKE
heavy: B2 heavy
light: B2 light
B4: 5T4 mAb 1/CD3 mAb 2 Fast/CD8 mAb 1 Tri-Specific Binding Molecule (other)
chain 1: B3 chain 1 with G217K
chain 2: B3 chain 2
heavy: B2 heavy
light: B2 light

Key:
[1] = molecular target: T1, CD8 on human T cells (PBMC) (human, UniProt P01732 22-235); experiment: flow cytometry on human PBMC, CD5+/CD4- gated cells (bear CD8 and CD3), detection PE anti-human Fc (MFI)
T1 construct: whole, on cells; The CD8+ (CD5+ CD4-) cells also carry CD3; also called CD5+ CD4- gated PBMC; CD8+ T cells
Method: 50 μL (4×10⁶ cells/mL) of well-mixed cells in FACS buffer containing 0.01% sodium azide were then added into corresponding wells and mixed thoroughly using a pipette. The plate was incubated in the dark for about 45 minutes at 2-8° C. At the end of the incubation, the cells were washed twice by adding 300 μL of FACS buffer to each well, centrifuging the plate at 1,200 rpm for 5 minutes, and discarding the supernatant. The cell pellets were re-suspended in 100 μL mixture of PE-conjugated goat anti-Human Fcγ 1:500 diluted, CD5-APC and CD4-PerCP5.5 in FACS buffer containing 0.01% sodium azide, and incubated in the dark for about 45 minutes at 2-8° C. At the end of the incubation, the cells were washed, re-suspended with FACS buffer, and analyzed with a BD Caliber flow cytometer. Cells were gated to CD5⁺ CD4⁺ (FIG. 9A) or CD5⁺ CD4⁻ (FIG. 9B).

[2] = molecular target: T2, B7-H3 on A498 and JIMT-1 target cells (UniProt Q5ZPR3 29-534, limits assumed); experiment: cell-based or functional assay
T2 sequence (looked up): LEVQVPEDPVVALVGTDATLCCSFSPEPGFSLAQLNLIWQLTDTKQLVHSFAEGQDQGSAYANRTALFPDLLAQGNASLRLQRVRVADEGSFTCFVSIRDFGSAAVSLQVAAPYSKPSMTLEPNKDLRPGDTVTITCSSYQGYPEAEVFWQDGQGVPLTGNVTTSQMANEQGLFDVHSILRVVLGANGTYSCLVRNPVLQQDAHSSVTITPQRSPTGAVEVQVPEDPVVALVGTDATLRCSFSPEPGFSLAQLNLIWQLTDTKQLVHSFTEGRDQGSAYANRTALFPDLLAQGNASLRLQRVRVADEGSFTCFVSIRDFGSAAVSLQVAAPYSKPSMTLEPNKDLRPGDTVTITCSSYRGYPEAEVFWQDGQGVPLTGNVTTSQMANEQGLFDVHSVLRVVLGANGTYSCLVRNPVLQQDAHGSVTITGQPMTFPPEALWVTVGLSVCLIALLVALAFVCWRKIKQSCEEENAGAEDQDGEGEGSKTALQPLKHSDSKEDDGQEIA

[3] = molecular target: T3, 5T4 on JIMT-1 target cells (UniProt Q13641 32-420, limits assumed); experiment: cell-based or functional assay
T3 sequence (looked up): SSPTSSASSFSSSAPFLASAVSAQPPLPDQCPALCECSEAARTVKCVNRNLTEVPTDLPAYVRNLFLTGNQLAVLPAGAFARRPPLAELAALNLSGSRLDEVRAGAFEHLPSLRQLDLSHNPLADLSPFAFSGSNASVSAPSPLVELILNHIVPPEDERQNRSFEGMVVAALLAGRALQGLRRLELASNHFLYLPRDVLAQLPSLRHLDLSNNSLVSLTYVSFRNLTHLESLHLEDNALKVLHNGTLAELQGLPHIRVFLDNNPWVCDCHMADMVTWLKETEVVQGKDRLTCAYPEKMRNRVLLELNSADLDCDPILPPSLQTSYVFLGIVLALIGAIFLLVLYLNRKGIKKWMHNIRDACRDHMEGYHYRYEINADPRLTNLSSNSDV

[4] = molecular target: T1, CD8 on human T cells (PBMC); experiment: flow cytometry on human PBMC gated CD5+/CD4- (cells carry CD8 and CD3), detection with anti-human Fc-PE

T1 sequence (P01732 22-235): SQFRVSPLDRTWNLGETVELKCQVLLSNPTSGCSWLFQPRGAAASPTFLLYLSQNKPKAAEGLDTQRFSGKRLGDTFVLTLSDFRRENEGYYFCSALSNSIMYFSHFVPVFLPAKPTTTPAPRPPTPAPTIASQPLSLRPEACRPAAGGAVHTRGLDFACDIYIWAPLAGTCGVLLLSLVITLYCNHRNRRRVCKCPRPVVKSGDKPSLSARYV

Binder | EC50 (read off the curve) [1] [pM] | EC50 (nM) of killing, CD4+ effector cells, JIMT1-luc target cells, E:T 5:1 [2] [nM] | EC50 (nM) of killing, CD8+ effector cells, JIMT1-luc target cells, E:T 5:1 [2] [nM] | EC50 (nM) of killing, PanT effector cells, JIMT1-luc target cells, E:T 5:1 [2] [nM] | EC50 (nM) of killing, CD4+ effector cells, JIMT1-luc target cells, E:T 5:1 [3] [nM] | EC50 (nM) of killing, CD8+ effector cells, JIMT1-luc target cells, E:T 5:1 [3] [nM] | EC50 (nM) of killing, PanT effector cells, JIMT1-luc target cells, E:T 5:1 [3] [nM] | EC50 (read off the curve) [4] [pM]
B1 | ~1000 | 0.314 | 0.0051 | 0.0058 | – | – | – | –
B2 | – | – | – | – | 0.0045 | 0.0007 | 0.0009 | ~1000
B3 | – | – | – | – | – | – | – | ~800
B4 | – | – | – | – | 0.16 | 0.0021 | 0.0028 | ~500
